From article PMC11208146, “Molecular basis for transposase activation by a dedicated AAA+ ATPase” (Nature, 2024)

Target: IstA transposase, wild type, full length (IS5376, Geobacillus stearothermophilus) (Geobacillus stearothermophilus)
Assay: cryo-EM structure; IstA pre-incubated with strand-transfer-complex DNA (3.3:1), then IstB E167Q (5:1 to IstA), 37 °C; 20 mM HEPES pH 7.5, 150 mM NaCl, 5 mM MgCl2, 1 mM ATP, 1 mM DTT; 3.6 Å

Substance: IstA transposase, wild type, full length (IS5376, Geobacillus stearothermophilus) (enzyme)
- stoichiometry N: 4
